Experimental data: patent publication US20090233868
pIC50: −log10 of the molar value.

Experiments:
[1] = system: T1, LaR2C-N7 (La 174-180) (Homo sapiens); experiment: inhibition; settings: inhibition of HCV IRES translation in rabbit reticulocyte lysate; rescued by La
T1 sequence: KYKETDL

[2] = target: T2, LaR2C peptide (24-mer, La 174-197) (Homo sapiens) (UniProt P05455); experiment: inhibition; settings: inhibition of HCV IRES translation in rabbit reticulocyte lysate
T2 sequence: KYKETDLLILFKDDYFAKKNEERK

In the case of “HCV IRES-luciferase monocistronic RNA (uncapped)”, the pIC50 [1] was 4.40 and the pIC50 [2] was 4.52.
